Assay: soluble on expression in E. coli; label from the status in PepcDB or PDB records

Soluble on expression in E. coli, not soluble:
QVPILHRDADFLLRALQPDDFVRTSRYENANREHLAPWEPLRDPGYFSVDNARARTLLQVASMDEGEALLLLLLDPDDGEVLGRCSYTNIVRGVFQACHLGFSLAAAAQGRGLMARALRVANRYCFEQLGLHRIMASHLPRNARSERLLESLGFEKEGYARAYLKIAGVWEDHVLRALVDAPR

Soluble on expression in E. coli, soluble:
MPNSSIQIWLQRQIALRTFPPNREDWYVKNGFGNSEMSLEERFASFVEAIRQEDSPYHEQLSGIDFQRFEIEVTLANQKTCMTEVIGFQNNSNQSSSTPNEKFKAVGKGKHVIYFTGIGTQYQDCLIDIAKAVQITGAHYYAFEYPGMRKLGGEVLEVNDMVNTGIALANTLLEKGISIDDILFQGDSFGAAVAKKVSDQFKLQSNVTVRCILNNTFSTFQAAVEGNLGAFSTLRYTVRPLLRYTGWDIRPGEGYGQDTPYQIHVNHTGDLTLGAGHATLAESIESNSQLEHFVDPCPEEYRIKRDIYKQWHWASLSEQGITFLETKYGRNSDGQLDTHLADLYLLKYDTGLGVYESFICKYLEDSNDYIASHPQKLSLDELPRPLESETVSLRQLIVSVLPSRPSIAGFFSRSTPVIEEVETEKQEQKSIELK
MRAPFISSLVKTLVHTDYDTSTGEVRSRRATGFVVGLTGEWGLGKSSVLNLLEHDLKQMEHVAVATLNPWLFKGRDEVVEAYFNALREALGFSSSEKARKLLVHLARYKASIEFVGATTAVVIDFVVGTGSATAIWKKWVLKVVRFLSKSRGLSANEERKNLEAKLAEAKIAIVMLIDELDRVEDEEVRVVAQLVKAVGDIKGISYLVAYDPSRVAQALGKGSTPEEKQKAGESYLEKIIQFPIPLRPLFMDEARDLLLQAMRNNDVTMPAESQSYQTEILNQLLRVIRTPREIKRLIGAFAVLEEIVRGLEHHHHHH
GMNISNLINADVDEKGFVSDKLRDNFFQIVRNRPENRTCFDCESRNPTWLSLSFAVFICLNCSSDHRKMGVHISFVRSSDLDKFTPIQLVRMDIGGNGRARNYFKQVLGVNFSPKTKEYASSICGRQYKQILDSEISE
AEEPTGVFLKKPDSVSVETGKDAVVVAKVNGKELPDKPTIKWFKGKWLELGSKSGARFSFKESHNSASNVYTVELHIGKVVLGDRGYYRLEVKAKDTCDSCGFNIDVEAPR
HMSICTSEEWQGLMQFTLPVRLCKEIELFHFDIGPFENMWPGIFVYMVHRSCGTSCFELEKLCRFIMSVKKNYRRVPYHNWKHAVTVAHCMYAILQNNHTLFTDLERKGLLIACLCHDLDHRGFSNSYLQKFDHPLAALYSTSTMEQHHFSQTVSILQLEGHNIFSTLSSSEYEQVLEIIRKAIIATDLALYFGNRKQLEEMYQTGSLNLNNQSHRDRVIGLMMTACDLCSVTKLWPVTKLTANDIYAEFWAEGDEMKKLGIQPIPMMDRDKKDEVPQGQLGFYNAVAIPCYTTLTQILPPTEPLLKACRDNLSQWEKVIRGEETATWISSPSVAQKAAASED
MSLATLLHIDSSVFPSAASASRAVAETFRTAWQEQHPDGTVIYRDLSANPVPHITADAHTAGFADPATHTPGQAAAFAEREKLIAELEQADAVLIGAPMYNYAIPSTLKAWLDNVILMGRTAANENSKVTGTPVTVIASRGGSYAPGTPREPYEYVQNYLKAVLSDALGLELEFIVPELTMAAHNPAMSELVPLAEASRAKAHEDAAAKAKELADRFAAEGHHHHHH
SLKEPRWRDPELPEVLAMLRHPVDPVKANAAAYLQHLCFENEGVKRRVRQLRGLPLLVALLDHPRAEVRRRACGALRNLSYGRDTDNKAAIRDCGGVPALVRLLRAARDNEVRELVTGTLWNLSSYEPLKMVIIDHGLQTLTHEVIVPHSGWEREPNEDSKPRDAEWTTVFKNTSGCLRNVSSDGAEARRRLRECEGLVDALLHALQSAVGRKDTDNKSVENCVCIMRNLSYHVHKEVPGADRYQEAEPGPLGSAVGSQRRRRDDASCFGGKKAKEEWFHQGKKDGEMDRNFDTLDLPKRTEAAKGFELLYQPEVVRLYLSLLTESRNFNTLEAAAGALQNLSAGNWMWATYIRATVRKERGLPVLVELLQSETDKVVRAVAIALRNLSLDRRNKDLIGSYAMAELVRNVRNAQAPPRPGACLEEDTVVAVLNTIHEIVSDSLDNARSLLQARGVPALVALVASSQSVREAKAASHVLQTVWSYKELRGTLQKDGWTKARFQSAAATAKGPK

— the DeepSol protein solubility set
